Legend:
L7Ae [1] = biological target: T1, L7Ae (UniProt O29494 O29494:1-119); assay: RNA microarray, no Cy3 signal; conditions: tags: Cy3-labelled (NHS ester); label: 3' pCp-Cy5; hairpin
Description: The mixture solution was incubated at 100° C. for 5 minutes and subsequently on ice for 5 minutes. On the lower frame of a hybridization chamber (Agilent), a gasket slide (Agilent) was mounted. In a single well of the gasket slide, the mixture solution (45 μL) was added and the well was covered with a DNA Barcode microarray slide and then a hybridization chamber was assembled. The hybridization chamber was set at a rotor (Agilent) of a hybridization oven of 55° C. Incubation was performed for 20 hours at a rotation rate of 20 per minute. The hybridization chamber was taken out from the oven and made into pieces. The microarray slide was taken out, separated from the gasket in Gene Expression Wash Buffer 1 (Agilent), washed with Gene Expression Wash Buffer 1 at room temperature for 5 minutes and further washed with Gene Expression Wash Buffer 2 (Agilent) at 37° C. for 5 minutes. The dried microarray slide was scanned by a microarray scanner (Agilent) in the mode of 8×15K, c scan, AglilentHD_miRNA, two color, XDR Hi and Lo (0.05). In this manner, binding of an RNA probe to a target spot was confirmed based on Cy5 signal.
Subsequently, to the gasket slide on the hybridization chamber, 70 μL of 5 nM Cy3-L7Ae (controlled in concentration with TBSMT buffer (Tris-HCl 20 mM, NaCl 300 mM, 5 mM MgCl₂, 0.1% Tween-20)) was added and then a microarray slide scanned was mounted. A hybridization chamber was assembled and incubation was performed at room temperature for 30 minutes. The hybridization chamber was made into pieces and the microarray slide was taken out, separated from the gasket in the TBSMT buffer, washed with TBSMT buffer at room temperature for 5 minutes, and further washed with TBSM buffer (Tris-HCl 20 mM, NaCl 300 mM, 5 mM MgCl₂) at room temperature for 5 minutes. The dried microarray slide was scanned again. […] In addition, Cy3 signal, which was 1.5 times as strong as that at PoP_00001_Kt, was detected at a spot of PoP_00024_hsa-let-7e. No Cy3 signal was detected at spots of other 10 probes.

U1A [2] = biological target: T2, U1A (Homo sapiens, UniProt P09012 P09012:2-282); assay: RNA microarray, signal at least 10-fold below U1A2/U1A; conditions: tags: Cy3-labelled (NHS ester), label: 3' pCp-Cy5, hairpin
T2 sequence (P09012 2-282, one chain of several): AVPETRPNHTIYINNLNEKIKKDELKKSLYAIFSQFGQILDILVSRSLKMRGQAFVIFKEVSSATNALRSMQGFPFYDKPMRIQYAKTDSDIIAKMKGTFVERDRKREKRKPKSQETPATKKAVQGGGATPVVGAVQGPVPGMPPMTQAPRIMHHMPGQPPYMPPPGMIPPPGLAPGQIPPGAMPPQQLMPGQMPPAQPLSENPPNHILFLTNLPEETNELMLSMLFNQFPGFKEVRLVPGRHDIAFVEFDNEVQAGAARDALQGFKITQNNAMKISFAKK
Description: (§1) To a 1.5-mL tube, 120 ng of Cy5-RNA probe PoP_00001 Kt, 120 ng of Cy5-RNA probe PoP_00001, 00008, 00010, 00011, 00014, 00016, PoP_00018-28 and ultrapure water were mixed and controlled to have a volume of 18 μL. Hereinafter, the same operation as described in Section 8 above was performed. Binding of the RNA probe to a target spot was confirmed based on Cy5 signal.
(§2) Subsequently, to the gasket slide on the hybridization chamber, 70 μL of 40 nM Cy3-U1A was added and a microarray slide having RNA probes bound thereto was mounted and then a hybridization chamber was assembled. Incubation was performed at room temperature for 30 minutes. The hybridization chamber was made into pieces and the microarray slide was taken out, separated from the gasket in the TBSMT buffer, washed with TBSMT buffer at room temperature for 5 minutes, and further rinsed with TBSM buffer. Thereafter, the dried microarray slide was scanned.

L7Ae [3] = biological target: T1, L7Ae; assay: RNA microarray, 5 nM L7Ae, 300 mM NaCl, 5 mM MgCl2; conditions: tags: Cy3-labelled (NHS ester); label: 3' pCp-Cy5; hairpin
Description: To a 1.5 mL tube, 120 ng of Cy5-RNA probe PoP_00001_Kt, 120 ng of Cy5-RNA probe PoP_00018-28 and ultrapure water were mixed and controlled to have a volume of 18 μL. To this, 4.5 μL of 10× Gene Expression Blocking Agent (Agilent) and 22.5 μL of 2×Hi-RPM Hybridization Buffer (Agilent) were added and mixed. The mixture solution was incubated at 100° C. for 5 minutes and subsequently on ice for 5 minutes. On the lower frame of a hybridization chamber (Agilent), a gasket slide (Agilent) was mounted. In a single well of the gasket slide, the mixture solution (45 μL) was added and the well was covered with a DNA Barcode microarray slide and then a hybridization chamber was assembled. The hybridization chamber was set at a rotor (Agilent) of a hybridization oven of 55° C. Incubation was performed for 20 hours at a rotation rate of 20 per minute. The hybridization chamber was taken out from the oven and made into pieces. […]
Subsequently, to the gasket slide on the hybridization chamber, 70 μL of 5 nM Cy3-L7Ae (controlled in concentration with TBSMT buffer (Tris-HCl 20 mM, NaCl 300 mM, 5 mM MgCl₂, 0.1% Tween-20)) was added and then a microarray slide scanned was mounted. […] In addition, Cy3 signal, which was 1.5 times as strong as that at PoP_00001_Kt, was detected at a spot of PoP_00024_hsa-let-7e.

L7Ae [4] = biological target: T1, L7Ae; assay: EMSA; 50 mM HEPES-KOH pH 7.8, 100 mM KCl, on ice; conditions: tags: Cy3-labelled (NHS ester); label: 3' pCp-Cy5; hairpin
Description: Specific binding of DNA Barcode (bc25mer_00001) and Cy5-RNA probe (PoP_00001_Kt), and further, binding of Cy5-RNA probe (PoP_00001_Kt, PoP_00024_hsa-let-7e) and L7Ae were confirmed by EMSA as follows. First, bc25mer_00001 and PoP_00001_Kt or PoP_00024_hsa-let-7e were mixed and annealed. The composition of a reaction solution (11 μL) was as follows: 500 nM bc25mer_00001, 500 nM Cy5-RNA probe, 1× Annealing Buffer (50 mM HEPES-KOH (ph7.8), 100 mM KCl). The reaction was incubated at 95° C. for 5 minutes and at room temperature for 10 minutes. Subsequently, the DNA/RNA complex annealed and L7Ae were bound by mixing them as follows. The composition of a reaction solution (15 μL) was as follows: 0, 100, 200, 500 or 1000 nM Cy3-L7Ae, 50 nM DNA/RNA complex and 1× Annealing Buffer. Incubation was performed on ice for one hour. To the solution, 3.75 μL of a 5× dye solution (0.25% bromophenol blue, 30% glycerol) was added and mixed. The mixture solution (10 μL) was overlaid on non-denatured 15% polyacrylamide (1/30 bis-acrylamide) gel and electrophoresis was performed at 4° C. and 200 V for 60 minutes. After the electrophoresis, the gel was stained with SYBR Green I and II at room temperature for 15 minutes, and scanned by Typhoon FLA 7000 (GE Healthcare) in SYBR Green mode (600 pmt). Bands were confirmed.

U1A [5] = biological target: T2, U1A; assay: RNA microarray, 40 nM U1A; conditions: tags: Cy3-labelled (NHS ester); label: 3' pCp-Cy5; hairpin
Description: as §1, §2

T1 sequence (O29494 whole entry, one chain of several): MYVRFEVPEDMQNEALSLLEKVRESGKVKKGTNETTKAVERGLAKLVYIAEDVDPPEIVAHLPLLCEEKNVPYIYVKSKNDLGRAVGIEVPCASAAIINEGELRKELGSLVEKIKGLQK

B1: PoP_00026_hsa-let-7f-2 loop (ssRNA)
RNA: GCCUUGAUGGCCGUCAGUUCGGUUAAGGUGUACGAAGUUUCAGCAUAGUUUUAGGGUCAUACCCCAUCUUGGAGAUAACUAUGCUGAAGCUUCGUGCAC
- binding result (L7Ae [1]): no binding
- binding result (U1A [2]): no binding

B2: PoP_00025_hsa-let-7f-1 loop (ssRNA)
RNA: GUAAUCGAGGCGUAAGGCACAACAUAGGUGUACGAAGUUUCAGCAUAGUUGUGGGGUAGUGAUUUUACCCUGUUCAGGAGAUAACUAUGCUGAAGCUUCGUGCAC
- binding result (L7Ae [1]): no binding
- binding result (U1A [2]): no binding

B3: PoP_00024_hsa-let-7e loop (ssRNA)
RNA: GACGGGAUCCAAGCGCUCGUAAUAGCGGUGUACGAAGUUUCAGCAUAGUUGAGGAGGACACCCAAGGAGAUCACUAUGCUGAAGCUUCGUGCAC
- binding signal (L7Ae [3]): 1.5 fold Cy3 signal vs Kt
- binding signal (L7Ae [4]): ~10 fold stronger than Kt
- binding result (U1A [2]): no binding

B4: PoP_00014_U1A (ssRNA)
RNA: GAUAGAGCCAACUAUGCGCAGUUACCGUUUGGGAAUAUAGUGCCAUUGCACUCCGGCGCUAUAUUCCCGGA
- binding signal (U1A [5]): ≥ 10 fold Cy3 signal vs other spots

B5: PoP_00001_Kt (ssRNA)
RNA: GUAUAAGCGGGAGAUUCGUCCUCAUAGGUGUACGAAGUUUCAGCUGACCCGAAAGGGCGUGAUGCUGAAGCUUCGUGCAC
- binding result (U1A [2]; Kt kink-turn loop): no binding

B6: PoP_00008_dKt (ssRNA)
RNA: GGAUUCCACUCAAGCUUCACGGGAUAGUUUGGGAAUAUAGUGCCUGCCCGAAAGGGCGUCAUGGCGCUAUAUUCCCGGA
- binding result (U1A [2]): no binding

B7: PoP_00023_hsa-let-7d loop (ssRNA)
RNA: GCAAUAUCAUCGCGUGUUAAGGUGGCGGUGUACGAAGUUUCAGCAUAGUUUUAGGGCAGGGAUUUUGCCCACAAGGAGGUAACUAUGCUGAAGCUUCGUGCAC
- binding result (L7Ae [1]): no binding
- binding result (U1A [2]): no binding

B8: PoP_00016_dU1A (ssRNA)
RNA: GGGGUAUAUCCUCACACUUCCCGGGCGUUUGGGAAUAUAGUGCCAUUACGGUCCGGCGCUAUAUUCCCGGA
- binding result (U1A [2]): no binding

B9: PoP_00027_hsa-let-7g loop (ssRNA)
RNA: GCACAAGGAGUAAGGCGCAUGUACCCGGUGUACGAAGUUUCAGCACAGUUUGAGGGUCUAUGAUACCACCCGGUACAGGAGAUAACUGUGCUGAAGCUUCGUGCAC
- binding result (L7Ae [1]): no binding
- binding result (U1A [2]): no binding

B10: PoP_00021_hsa-let-7b loop (ssRNA)
RNA: GAACCGGCUACGCUAAACUUAGAACCGGUGUACGAAGUUUCAGCGUGGUUUCAGGGCAGUGAUGUUGCCCCUCGGAAGAUAACUAUGCUGAAGCUUCGUGCAC
- binding result (L7Ae [1]): no binding
- binding result (U1A [2]): no binding

B11: PoP_00019_hsa-let-7a-2 loop (ssRNA)
RNA: GACACGGUAGGGAAACCCACCAACUAGGUGUACGAAGUUUCAGCAUAGUUUAGAAUUACAUCAAGGGAGAUAACUGUGCUGAAGCUUCGUGCAC
- binding result (L7Ae [1]): no binding
- binding result (U1A [2]): no binding

B12: PoP_00011_dU1A2 (ssRNA)
RNA: GAGACGAGGCCCUAGAUCAUGCAUCCGUUUGGGAAUAUAGUGCCGAGUCCUUCGGGACAUUACGGCGGCGCUAUAUUCCCGGA
- binding result (U1A [2]): no binding

B13: PoP_00010_U1A2 (ssRNA)
RNA: GGUGUCCAGAUUAGGCGUGCCAUACCGUUUGGGAAUAUAGUGCCGAGUCCUUCGGGACAUUGCACCGGCGCUAUAUUCCCGGA
- binding signal (U1A [5]): ≥ 10 fold Cy3 signal vs other spots

B14: PoP_00028_hsa-let-7i loop (ssRNA)
RNA: GAUAUGACCGCCGGCUUAGAAUAGAAGGUGUACGAAGUUUCAGCGCUGUUGGUCGGGUUGUGACAUUGCCCGCUGUGGAGAUAACUGCGCUGAAGCUUCGUGCAC
- binding result (L7Ae [1]): no binding
- binding result (U1A [2]): no binding

B15: PoP_00018_hsa-let-7a-1 loop (ssRNA)
RNA: GGUGACGGGCAAAUCACUAACCACCCGGUGUACGAAGUUUCAGCAUAGUUUUAGGGUCACACCCACCACUGGGAGAUAACUAUGCUGAAGCUUCGUGCAC
- binding result (L7Ae [1]): no binding
- binding result (U1A [2]): no binding

B16: PoP_00020_hsa-let-7a-3 loop (ssRNA)
RNA: GAGAGAGGAUUCUCACUUACUGUACCGGUGUACGAAGUUUCAGCAUAGUUUGGGGCUCUGCCCUGCUAUGGGAUAACUAUGCUGAAGCUUCGUGCAC
- binding result (L7Ae [1]): no binding
- binding result (U1A [2]): no binding

B17: PoP_00022_hsa-let-7c loop (ssRNA)
RNA: GAACUGGCAAUCGCACCCACCUAAAGGGUGUACGAAGUUUCAGCGGUUUAGAGUUACACCCUGGGAGUUAACUGCUGAAGCUUCGUGCAC
- binding result (L7Ae [1]): no binding
- binding result (U1A [2]): no binding

— patent publication US20170022545, “RNA MICROARRAY FOR DETECTING INTERACTION BETWEEN PROTEIN AND RNA CONTAINING A HIGHER-ORDER STRUCTURE” (KYOTO UNIVERSITY, published 2017)
